Laboratory results published in US11634477 (dated 2023).

Legend:
SARS-CoV-2 RBD = SARS-CoV-2 RBD (SARS-CoV-2, UniProt P0DTC2); test: ELISA
SARS-CoV RBD = SARS-CoV RBD (SARS-CoV, UniProt P59594); test: ELISA

B1: C150 (antibody, V domains shown)
VH: EVQLVESGGGLVQPGGSLRLSCVASGFTFSSYWMHWVRQVPGKGPVWVSHINSEGSSTNYADSVRGRFTISRDNAKDTLYLQMNNLRAEDTAVYYCARPTAVAAAGNYFYYYGMDVWGQGTTVTVSS
VL: QSALTQPASVSGSPGQSITISCTGTSSDVGYYNFVSWYQQHPGKAPKLMIYEVSNRPSGVSNRFSGSKSGNTASLIISGLQAEDEADYYCSSYRSSSTLVFGGGTKLTVL
EC50 (SARS-CoV-2 RBD): 8.11 ng/mL | EC50 (SARS-CoV RBD): > 1000 ng/mL

B2: C009 (antibody, V domains shown)
VH: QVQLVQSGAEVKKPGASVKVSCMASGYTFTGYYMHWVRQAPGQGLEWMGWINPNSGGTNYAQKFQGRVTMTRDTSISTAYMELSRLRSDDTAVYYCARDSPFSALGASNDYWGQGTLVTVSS
VL: QSALTQPPSASGSPGQSVTISCTGTSSDVGGYNYVSWYQQHPGKAPKLMIYEVSKRPSGVPDRFSGSKSGNTASLTVSGLQAEDEAEYYCSSDAGSNNVVFGGGTKLTVL
EC50 (SARS-CoV-2 RBD): 1.8 ng/mL | EC50 (SARS-CoV RBD): > 1000 ng/mL

B3: C103 (antibody, V domains shown)
VH: QVQLQQWGAGLLKPSETLSLTCAVSGGSLSGFYWTWIRQPPGKGLEWIGETNHFGSTGYKPSLKSRVTISVDMSRNQFSLKVTSVTAADTAVYYCARKPLLYSDFSPGAFDIWGQGTMVTVSS
VL: EIVLTQSPGTLSLSPGERATLSCRASQTVTANYLAWYQQKPGQAPRLLIYGASKRATGIPDRFSGSGSGTDFTLSISRLEPEDFAVYYCQQYTTTPRTFGGGTKVEIK
EC50 (SARS-CoV-2 RBD): 3.77 ng/mL | EC50 (SARS-CoV RBD): > 1000 ng/mL

B4: C008 (antibody, V domains shown)
VH: EVQLVESGGGVVQPGRSLRLSCAASGFTFSSYGMHWVRQAPGKGLEWVTVISYDGRNKYYADSVKGRFTISRDNSKNTLYLQMNSLRAEDTAVYYCAREFGDPEWYFDYWGQGTLVTVSS
VL: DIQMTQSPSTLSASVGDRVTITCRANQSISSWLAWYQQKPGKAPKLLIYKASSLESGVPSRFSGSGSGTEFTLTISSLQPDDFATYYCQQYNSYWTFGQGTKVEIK
EC50 (SARS-CoV-2 RBD): 4.63 ng/mL | EC50 (SARS-CoV RBD): > 1000 ng/mL

B5: C211 (antibody, V domains shown)
VH: EVQLVESGGGLVQPGGSLRLSCAASEFTVSSNYMSWVRQAPGKGLEWVSVIYSGGSTFYADSVKGRFTISRDNSKNTLYLQMNSLRPEDTAVYYCARDYGDFYFDFWGQGTLVTVSS
VL: EIVMTQSPATLSVSPGERATLSCRASQSVSSNLAWYQQKPGQGPRLLIYGASTRATGIPARFSGSGSGTEFTLTISSLQSEDFAVYYCQQYNNWPRTFGQGTKVEIK
EC50 (SARS-CoV-2 RBD): 2.82 ng/mL | EC50 (SARS-CoV RBD): > 1000 ng/mL

B6: C215 (antibody, V domains shown)
VH: EVQLLESGGGLVQPGGSLRLSCAASGFTFSSYAMSWVRQAPGKGLEWVSAITDSGDGTFYADSVKGRFTISRDNSKNTLYLQMNSLRAEDTAVYYCASEEDYSNYVGWFDPWGQGTLVTVSS
VL: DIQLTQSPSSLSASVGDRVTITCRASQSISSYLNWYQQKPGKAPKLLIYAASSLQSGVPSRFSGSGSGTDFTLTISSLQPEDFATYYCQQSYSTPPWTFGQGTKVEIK
EC50 (SARS-CoV-2 RBD): 5.33 ng/mL | EC50 (SARS-CoV RBD): 17.9 ng/mL

B7: C104 (antibody, V domains shown)
VH: QVQLQQWGAGLLKPSETLSLSCAVYGGSLSGYYWSWIRQPPGKGLEWIGEINHFGSTGYNPSLKSRVTISVDTSKSQFSVKLSSVTAADTAVYYCARKPLLYSNLSPGAFDIWGQGTMVTVSS
VL: EIVLTQSPGTVSLSPGERATLSCWASQSVSASYLAWYQQKPGQAPRLLIYGASSRATGIPDRFSGSGSGTDFTLTISRLEPEDFAVYYCQQYGTTPRTFGGGTKVEIK
EC50 (SARS-CoV-2 RBD): 8.31 ng/mL | EC50 (SARS-CoV RBD): > 1000 ng/mL

B8: C130 (antibody, V domains shown)
VH: QVQLVQSGAEVKKPGASVKVSCKASGYTFTNYYMHWVRQAPGQGLEWMGIINPSGGSTGYAQKFQGRVTMTRDTSTSTVYMELSSLRSEDTAVYYCARSRPTPDWYFDLWGRGTLVTVSS
VL: SYELTQPPSVSVAPGKTARITCGGNNIGSKSVHWYQQKPGQAPVLVIYYDSDRPSGIPERFSGSNSGNTATLTISRVEAGDEADYYCQVWDSSSDHPGVVFGGGTKLTVL
EC50 (SARS-CoV-2 RBD): 2.05 ng/mL | EC50 (SARS-CoV RBD): > 1000 ng/mL

B9: C138 (antibody, V domains shown)
VH: EVQLVESGGGLVQPGGSLRLSCAASGFTFSTYWMSWVRQPPGKGLEWVANIKQDGSEKYYVDSVKGRFTISRDNAKNSLYLQMNSLRADDTAVYYCAGGTWLRSSFDYWGQGTLVTVSS
VL: NFMLTQPHSVSESPGKTVTISCTGSSGSIASNYVQWYQQRPGSAPTTVIYEDNQRPSGVPDRFSGSIDSSSNSASLTISGLKTEDEADYYCQSYDSSNWVFGGGTKLTVL
EC50 (SARS-CoV-2 RBD): 2.94 ng/mL | EC50 (SARS-CoV RBD): > 1000 ng/mL
